Broadly, the stoichiometry N is a count of units in the complex or per binding partner.

The results in this text go back to publication doi:10.1101/209445, “Large conformational changes in FtsH create an opening for substrate entry” (bioRxiv, 2017).

Data set [1] concerns the molecule itself. In words: native gel or EMSA; Native PAGE (Mini-PROTEAN TGX precast gel) of SEC peak 2 (13.4 mL). A general note: A gel shift assay detects complexes by their altered migration in electrophoresis.
Data set [2] concerns the molecule itself. Put plainly: negative-stain electron microscopy; SEC peak 1 (dodecamer fraction), 3% uranyl acetate; 15000 particles, 2D class averages; 3D map with no symmetry imposed, 25 Å; two hexamers in a single LMNG micelle.

B1: Full-length Aquifex aeolicus FtsH (enzyme, UniProt O67077 1-634, looked up)
chain: MNALKNFFIWAIIIGAAIVAFNLFEGKREFTTKVSLNEVVKLVEEGKVSYAEVRGNTAIIQTKDGQKLEVTLPPNTNLVDKMVEKGVRVEVANPEPPGGWLVNVFLSWLPILFFIGIWIFLLRQMSGGGNVNRAFNFGKSRAKVYIEEKPKVTFKDVAGIEEVKEEVKEIIEYLKDPVKFQKLGGRPPKGVLLYGEPGVGKTLLAKAIAGEAHVPFISVSGSDFVEMFVGVGAARVRDLFETAKKHAPCIIFIDEIDAVGRARGAIPVGGGHDEREQTLNQLLVEMDGFDTSDGIIVIAATNRPDILDPALLRPGRFDRQIFIPKPDVRGRYEILKVHARNKKLAKDVDLEFVARATPGFTGADLENLLNEAALLAARKGKEEITMEEIEEALDRITMGLERKGMTISPKEKEKIAIHEAGHALMGLVSDDDDKVHKISIIPRGMALGVTQQLPIEDKHIYDKKDLYNKILVLLGGRAAEEVFFGKDGITTGAENDLQRATDLAYRMVSMWGMSDKVGPIAIRRVANPFLGGMTTAVDTSPDLLREIDEEVKRIITEQYEKAKAIVEEYKEPLKAVVKKLLEKETITCEEFVEVFKLYGIELKDKCKKEELFDKDRKSEENKELKSEEVKEEVV
notes: The protomer is the molecule; The construct came from U. Baumann; also called AaFtsH; LMNG-AaFtsH; source: E. coli, overexpressed (pET22a); extracted from purified membranes with LMNG; purified (Ni-NTA/HisTrap, SEC Superose 6)
Consider B1, for which the “stoichiometry N” value is 6 in data set [1] and 12 in data set [2].
